Results on 14 molecules are retold here after patent US20210371503A1 (UNIVERSITY OF COLOGNE, published 2021).

The target of test [1] is T1, receptor-binding domain (RBD) of the spike (S) protein of SARS-CoV-2 (SARS-CoV-2, UniProt P0DTC2 319-541).
For test [2], the target named is T1, receptor-binding domain (RBD) of the …. Nature of the test: ELISA, coated RBD. A general note: ELISA stands for enzyme-linked immunosorbent assay.
For test [3], the target named is S1 (truncated S1 subunit). The experiment in a line: ELISA, coated truncated S1.
For test [4], the target named is T1, receptor-binding domain (RBD) of the …. The experiment in a line: ELISA, coated RBD [cont'd].
For test [5], the target named is S1 (truncated S1 subunit). Nature of the test: ELISA, coated truncated S1 [cont'd].
Test [6] has as its target T1, receptor-binding domain (RBD) of the …. Nature of the test: assay not stated; row Binding Affinity Spike RBD.
The target is the same in test [7]. The experiment in a line: ELISA, coated RBD [cont'd]. The source holds these as a separate data set.
The target in test [8] is S1 (truncated S1 subunit). Nature of the test: ELISA, coated truncated S1 [cont'd]. This is another data set of the same source.
The target of test [9] is T1, receptor-binding domain (RBD) of the …. The experiment in a line: ELISA, coated RBD [cont'd]. The source holds these as a separate data set.
Test [10] concerns the target S1 (truncated S1 subunit). Nature of the test: ELISA, coated truncated S1 [cont'd]. The source holds these as a separate data set.
Test [11] has as its target T1, receptor-binding domain (RBD) of the …. This is another data set of the same source.

In general, Kd refers to the free concentration of one partner at which half of the binding sites on the other are occupied at equilibrium, for simple one-to-one binding. Broadly, the EC50 is the concentration giving half of the maximal effect. A higher EC50 goes with a less potent agent.

Changes are numbered by the printed parent chain. Like-named read-outs stand apart in the source and are kept apart here. Where only a bound is given, the exact number is not on record here.

B1: FnC1t2p1_D4 (antibody, V domains shown)
VH: QVQLVQSGSELKKPGASVKVSCKASGYTFLRFAMNWLRQAPGQGLEWMGWIDTNTGTPTYAQGFTGRFVFSLDTSVSTAYLQISSLKAEDTAVYYCARSLRGANLVPWGQGTLVTVSS
VL: DIQMTQSPSSLSASVGDRVTITCQASQDVSNYLNWYQQQPGKAPKLLIYDAFNLETGVPSRFSGSGSGTDFTFTISSLQPEDIATYYCQQYDNLPLTFGGGTKVEIK
Take B1: binding in [1] was characterised by a dissociation constant (Kd) of 0.2 nM. In addition, the EC50 in test [2] and in test [3] was < 100 µg/mL in each case.

B2: FnC1t2p1_G5 (antibody, V domains shown)
VH: B1 VH
VL: B1 VL
For B2, the Kd in test [1] was 0.1 nM. For the same molecule, the EC50 in [4] and in [5] was < 100 µg/mL throughout.

B3: DZIF-10c (antibody, V domains shown)
VH: QVQLVESGGGVVQPGRSLRLSCAATGFTFRRYGMHWVRQAPGKGLEWVAGILFDGSNKYYVDSVKGRFTISRDSSRNTLYLQLNSLRREDTAVYYCAKGGDYEWELLESWGQGTLVTVSS
VL: DIQMTQSPSTVSASVGDRVTITCRASQSIDNWLAWYQEKPGKAPKVLIYKASSLESGVPSRFSGRGSGTEFTLTISSLQPGDFATYYCQHYHSFPLTFGGGTKVDIKR
notes: also called HbnC3t1p1_F4(-K); EX14870
With B3, the Kd in test [6] was found to be 2 nM.

B4: MnC1t3p1_G9 (antibody, V domains shown)
VH: EVQLLESGGGLVQPGGSLRLSCAASGFTFRNYAMTWVRQAPGKGLEWVSGISDSGDRTYNADSVKGRFSISRDNSKNTLHLQMNSLRAEDTAVYYCALASGSYFGGANYWGQGTLVTVSS
VL: QAVVTQEPSLTVSPGGTVTLTCGSSTGPVTSDHYPYWFQQKPGQAPTTLIYDTNNKHSWTPARFSGSLLGGKAALTLSGAQPEDEAEYYCLLSYTGARVFGGGTKLTVL
Consider B4, for which the half-maximal effective concentration (EC50) in test [7] and in [8] was < 100 µg/mL each time.

B5: MnC2t2p1_C11 (antibody, V domains shown)
VH: QVQLVQSGAEVKKPGSSVKVSCKASGGTFSRYTIIWVRQAPGQGLEWMGRIIPILDIANYAQKFQGRVTITADKSTSTAYMELSSLRSEDTAVYYCAREGGLDYFGSRNSGWTYTWFDPWGQGTLVTVSS
VL: DIQMTQSPSSLSASVGDRVTITCRASQNISSYLNWYQQKPGKAPNLLIYAASSLQSGVPPRFSGSGSGTDFTLTISSLQPEDFATYYCQQSYSTLYSFGQGTKLEIK
Turning to B5, the Kd in [1] was 0.02 nM. The EC50 in test [7] and in test [8] was < 100 µg/mL each time.

B6: MnC4t2p1_B3 (antibody, V domains shown)
VH: EVQLVESGGHLVQPGRSLRLSCAASGFTFDDYAMHWVRQVPGKGLEWVSGISWNGGILDYADSVKGRFTISRDNAKNSLYLHMRSLRTDDTALYYCAKDLRRQDYYADWYFDLWGRGTLVTVSS
VL: DIQMIQSPSSVSASVGDRVTITCRASQGISSWLAWYQQKPGKAPKLLIYAASTLLSAVPSRFSGSGSGTDFTLTISSLQPEDFATYYCQQGNSFPFTFGPGTIVDV
In test [1], B6 registered a dissociation constant Kd of 0.09 nM. Further, the EC50 in [7] and in test [8] was < 100 µg/mL in each case.

B7: MnC4t2p1_E6 (antibody, V domains shown)
VH: B6 VH with D59G, H82Q
VL: B6 VL with I5T, I103K
B7: the 50% effective concentration (EC50) in test [9] and in [10] was < 100 µg/mL each time.

B8: FnC1t1p2_A5 (antibody, V domains shown)
VH: QVQLVQSGAEVKKPGASVKVSCKASGYTFTSYDINWVRQATGQGLEWMGWMNPNSGNTGYAQKFQGRVTMTRNTSISTAYMELSSLRSEDTAVYYCARATTDCSSTSCWSLDFWSGYYTGGREKIFDYWGQGTLVTVSS
VL: not shown
With B8, in test [2], the binding result is “no binding”. In test [3], the concentration for a half-maximal effect (EC50) was > 1000 µg/mL.

B9: MnC4t1p1_A11 (antibody, V domains shown)
VH: EVQLVESGGGLVQPGGSLRLSCAASGFTFSSYSMNWVRQAPGKGLEWVSYISSSSNTRYYTDSVMGRFTISRDNAKNSLFLQMNSLRAEDTAVYYCASSKGFCSGGSCSDYWGQGTLVTVSS
VL: EIVLTQSPGTLSLSPGERATLSCRASQSVSSSYLAWYQQKPGQAPRLLIYGVSSRATGIPDRFSGSGSGTDFTLTISRLEPEDFVVYYCHQYGSSPWTFGQGTKVEIK
In the case of B9, in [11], the dissociation constant Kd turned out to be 2000 nM. Further, the EC50 in test [7] and in [8] was < 100 µg/mL in each case.

B10: MnC2t1p1_A3 (antibody, V domains shown)
VH: EVQLVESGGGLVQPGGSLRLSCAASGFTVSSNYMSWVRQAPGRGLEWVSVIYSGGSTFYADSVKGRFTISRDNSKNTLYLQMNSLRPEDTAVYYCATGARFGESPFDYWGQGTLVTVSS
VL: DIQMTQSPSSVSASVGDRVTITCRASQGISSWLAWYQQKPGKAPKLLIYAASSLQSGVPSRFSGSGSGTDFTLTISSLQPEDFATYYCQQANSFPGTFGQGTKVEIK
In turn, B10 yielded a dissociation constant (Kd) in test [1] of 0.7 nM. Besides, the EC50 in test [7] and in test [8] was < 100 µg/mL throughout.

B11: MnC2t1p1_C5 (antibody, V domains shown)
VH: B10 VH with R43K, F58Y, P87A
VL: B10 VL
As for B11, the EC50 in test [7] and in [8] was < 100 µg/mL throughout.

B12: MnC4t2p2_A4 (antibody, V domains shown)
VH: QVQLVQSGSELKKPGASVKISCKASGYIFINYAMNWVRQAPGQGLEWMGWINTNTGNPTYAQDFTGRFVFSLDTSLSTAYLQISSLEAEDTAVYYCAKIGSRNSLGVWGQGTLVTVSA
VL: EIVLTQSPGTLSLSPGERATLSCRASHSVDRSYLAWYQQKPGLAPRLLIYGASSRATGIPDRFSGSGSGTDFTLTISRLEPEDFALYYCQHFGTSSVTFGRGTRLEIK
The molecule B12 registered a Kd in test [1] of 14 nM. The EC50 in test [9] and in [10] was < 100 µg/mL each time.

B13: CnC2t1p1_E8 (antibody, V domains shown)
VH: QVQLVQSGAEVKNPGASVKVSCKASGYIFTNYYIHWVRQAPGQGLEWVGWIHSLSGGTSYAQKFQGRVTLTRDASIRTAYMELSRLGSDDTALYYCARASVSTITDFDYWGQGTLVAVSS
VL: QSALTQPASVSGSPGQSITISCTGTSGDVGSYNLVSWYQQHPGKAPKLVIYEATKRPSGVSNRFFASKSGNTASLTISGLQAEDEADYYCCSYAGVRTVVFGGGTKLTVL
As for B13, the EC50 in test [2] and in test [3] was < 100 µg/mL each time.

B14: CnC2t1p1_G6 (antibody, V domains shown)
VH: B13 VH with N13K, S75P, R85G, L93V, S102A
VL: B13 VL with V29I, H41Y, V49I, T54S
As for B14, the EC50 in test [2] and in test [3] was < 100 µg/mL throughout.
